Usually Km stands for the concentration of substrate that gives half-maximal velocity.

In one data set the test system is T1, 1A-K1L12.
T1 construct: gene Kif1a; fused to D. melanogaster KHC neck-coil for dimerization; C-terminal His6; E. coli
In words: stopped-flow ATP-triggered half-site release of mant-ADP. The format is biochemical, Rattus norvegicus. The conditions noted are these: taxol-stabilized microtubules; 1HB complex with mant-ADP; Mg-ATP varied; half-maximal ATP for mant-ADP release, not steady-state ATPase.

Substrate in data set [1]: Nc1ncnc2c1ncn2[C@@H]1O[C@H](COP(=O)(O)OP(=O)(O)OP(=O)(O)O)[C@@H](O)[C@H]1O
The description is as above. The format is biochemical, Rattus norvegicus. The conditions noted are these: taxol-stabilized microtubules; 1HB complex with mant-ADP; Mg-ATP varied; half-maximal ATP for mant-ADP release, not steady-state ATPase.

Consider `Nc1ncnc2c1ncn2[C@@H]1O[C@H](COP(=O)(O)OP(=O)(O)OP(=O)(O)O)[C@@H](O)[C@H]1O` [ATP], for which the Km in the data set on 1A-K1L12 was 64 ± 28 µM.

B1: 1A368 (Rattus norvegicus) (protein)
chain: MAGASVKVAVRVRPFNSREMSRDSKCIIQMSGSTTTIVNPKQPKETPKSFSFDYSYWSHTSPEDINYASQKQVYRDIGEEMLQHAFEGYNVCIFAYGQTGAGKSYTMMGKQEKDQQGIIPQLCEDLFSRINDTTNDNMSYSVEVSYMEIYCERVRDLLNPKNKGNLRVREHPLLGPYVEDLSKLAVTSYNDIQDLMDSGNKARTVAATNMNETSSRSHAVFNIIFTQKRHDAETNITTEKVSKISLVDLAGSERADSTGAKGTRLKEGANINKSLTTLGKVISALAEMDSGPNKNKKKKKTDFIPYRDSVLTWLLRENLGGNSRTAMVAALSPADINYDETLSTLRYADRAKQIRCNAIINEDPNNKL
notes: KIF1A 1-368 (motor, neck linker) fused to D. melanogaster KHC neck-coil 345-406 for dimerization (biochemical version; 345-560 plus GFP for single-molecule); C-terminal His6; E. coli; dimer
In the case of B1, the Km in data set [1] is 119 ± 20 µM.

B2: 1A393 (Rattus norvegicus) (protein)
chain: MAGASVKVAVRVRPFNSREMSRDSKCIIQMSGSTTTIVNPKQPKETPKSFSFDYSYWSHTSPEDINYASQKQVYRDIGEEMLQHAFEGYNVCIFAYGQTGAGKSYTMMGKQEKDQQGIIPQLCEDLFSRINDTTNDNMSYSVEVSYMEIYCERVRDLLNPKNKGNLRVREHPLLGPYVEDLSKLAVTSYNDIQDLMDSGNKARTVAATNMNETSSRSHAVFNIIFTQKRHDAETNITTEKVSKISLVDLAGSERADSTGAKGTRLKEGANINKSLTTLGKVISALAEMDSGPNKNKKKKKTDFIPYRDSVLTWLLRENLGGNSRTAMVAALSPADINYDETLSTLRYADRAKQIRCNAIINEDPNNKLIRELKDEVTRLRDLLYAQGLGDITD
notes: KIF1A 1-393 (motor, neck linker, neck-coil) fused to D. melanogaster KHC neck-coil 345-406 for dimerization (biochemical version; 345-560 plus GFP for single-molecule); C-terminal His6; E. coli; dimer
On to B2, for which the Km in data set [1] turned out to be 96 ± 53 µM.

The record behind these values is PMC9871336, “Positive charge in the K-loop of the kinesin-3 motor KIF1A regulates superprocessivity by enhancing microtubule affinity in the one-head–bound state” (The Journal of Biological Chemistry, 2022).
